Results on 16 sequences are retold here after the nanobody polyreactivity screen of Harvey et al. (2022).

This data set in a line: yeast display, Sf9 membrane polyspecificity reagent, FACS + sequencing; frameworks hold sequencing errors. In short, it runs like this:
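A nanobody's polyreactivity label depends on the gate it was sorted from. Yeast display cells were stained with 10% biotinylated, detergent-solubilized Sf9 membrane reagent for 1 hour at 4 °C, enriched on streptavidin microbeads and sorted by FACS. The low and high (top ~1%) gates were set on anti-HA fluorescence for expression and streptavidin fluorescence for reagent binding.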
For the sequence “QVQLVESGGGLDQAGGSLRLSCAASGRIFVYNAMGWSRQAPGKARELVATITFSSSNTYYADSVKGRFTISRENAKNTVYLQMNSLKPEDTAVYYCYRDYVYARDYGNFDYWGQGTQVTVSS”, the “polyreactivity (PSR sort gate)” value is on record as “low polyreactivity”.

In the case of “QVQLVESGGGLVQAGGSLRLSCAASGSTFTRYAMGWYRQAPGKEREFVAGISWRGGSTYYADSVKGRFTISRDNAKNTVYFQMNSLKPEDTAVYYCAARSFSNIGYHGYGYWGQGTQVTVSW”, the “polyreactivity (PSR sort gate)” value is “high polyreactivity”.

On to “QVQLVESGGGLVQAGGSLRLSCAASGFTFYRYAMGWYRQAPGKERELVAAITASGGSTYYADSVKGRFTISRDNAKNTVYLQMNSLKPEDTAVYYCAKGWVSYWRYKNEYWGQGTQVTVSS”, for which the “polyreactivity (PSR sort gate)” value is on record as “high polyreactivity”.

With “QVQLVESGGGLVQAGGSLRLSCAASGSIFLGNAMGWYRQAPGKERELVAAITWSGGSTTYADSVKGRFTISRDNAKNTVYLQMNSLKREDTAVYYCNASIYQRYDYWGQGTQVTVSS”, the “polyreactivity (PSR sort gate)” value is recorded as “low polyreactivity”.

For “QVQLVESGGGLVQAGGSLRLICAASGRIFRIYAIGWYRQAPGKERELVARITYSGGSTYYADSVKGRFTISRDNAKNSVYLLMNSLKPEETAVYYCAADWLGYQYGYWGQGTQVTVSS”, the “polyreactivity (PSR sort gate)” value was “low polyreactivity”.

With “QVQLVESGGGLVQAGGSLRLSCAACGRIFVRNAMGWYRQAPGKERELVADITNGGSTNYADSVKGRFTISRDNAKNTVYLQMNSLKPEDTAVYYCGAVYYSTDYYFWYDYWGQGTQVTVSS”, the “polyreactivity (PSR sort gate)” value was “low polyreactivity”.

With “QVQLVESGGGLVQAGGSLRLSCAASGSIFIANAMGWYRQAPGKERELVAAISSSDSSTYYADSVKGRFTISRDNAKNTVYLQMNSLKPEDTAVYYCAATYWYWYREGYYWGQGTQVTVSS”, the “polyreactivity (PSR sort gate)” value was “high polyreactivity”.

For the sequence “QVQLEESGGGLVQAGGSLRLSCAASGLIFVDNAMGGSRQATGKERALVASIDSGGSTNYADSVKGRFTISRDNAKNTFYLQMNSLKPEDTAVYYCSADWIYAPWYYQESVEYYYWGQGTQVTVSS”, the “polyreactivity (PSR sort gate)” value is on record as “low polyreactivity”.

As to “QVQLVESGGGLVQAGGSLRLSCAASGRIGKYAMGWYRQAPGKERELVAAITSGGSTTYADSVKGRITISRDNAKNTVYLQMNSLNPEDTAVYYCKALRRARYTRKGYEYWGQGTQVTVSS”, the “polyreactivity (PSR sort gate)” value is listed as “high polyreactivity”.

In the case of “QVQLVESGGGLVQAGGSLRISCAASGFIFGPNAMGWYRQAPGKERELVAAISYSGGRTYYADSVKGRFTISRDNAKNTVYLQMNILKPEDTAVYYCAQPGRYWGQGTQVTVSS”, the “polyreactivity (PSR sort gate)” value is on record as “high polyreactivity”.

Regarding “QVQLVESGGGLVQAGGSLRLSCAASGSIFNYYTMGWYRQAPGKERELVARITSGDSTYYADSVKGRFTISRDNAKNTVYLQMNSLKPEDTAVYYCNAGLYRRRSTYYRQAYNYWGQGTQVTVSS”, the “polyreactivity (PSR sort gate)” value was “high polyreactivity”.

For “QVQLVESGGGLVQAGGSLRLSCAASGRTFLPYAMGWYRQAPGKERELVAAITSGGSTSYADSVKGRFTISRDNAKNTVYLQMNSLKPEDSAVYYCAKGYYRFRRFYYGGYYWGQGTQVTVSS”, the “polyreactivity (PSR sort gate)” value was “low polyreactivity”.

For “QVQLVESGGGLVQAGGSLRLSCAASGFIFYGYMGWYRQAPGKERELVAAISYTGGSTYYADSVKGRFTISRDNAKNTVYLQMNSLKPEDTAVYYCARDWRTKWFGYWGQGTQVTVSS”, the “polyreactivity (PSR sort gate)” value is recorded as “low polyreactivity”.

On to “QVQLVESGGGLDQAGGSLRLSCAASGSTIHRNAMGWYRQAPGKERELVAAITSGGSTNYADSVKGRFTISRDNAKNTVYLQMNSLKPEDTAVYYCDKDYRHYNRGWYDYWGQGTQVTVSS”, for which the “polyreactivity (PSR sort gate)” value is recorded as “low polyreactivity”.

“QVQLVESGGGLVQAGGSLRLSCAASGRTFVPYAMGWYRQAPGKERELVAAISSSGGSTYYADSVKGRFTISRDNAKNTVYLQMNSLKPDDTAVYYCAAKSRKGGEYWGQGTQVTVSS”: the “polyreactivity (PSR sort gate)” value is “high polyreactivity”.

As for “QVHLVESGGGKVQAGGRLRLSCAASGSTFFRYAMGWYRQAPGKERELVAAISWSGGTTYYADSVKGRFPISRDIAKNTVYLQMNSLKPEDTAVYYCNAVRQGHILDYWGQGTQVTVSS”, the “polyreactivity (PSR sort gate)” value was “low polyreactivity”.
